Measurements taken from article PMC6296734, “The CbrB Regulon: Promoter dissection reveals novel insights into the CbrAB expression network in Pseudomonas putida”.

T1: CbrB (Pseudomonas putida, UniProt A0ABM7EKZ2 1-480)
T1 sequence: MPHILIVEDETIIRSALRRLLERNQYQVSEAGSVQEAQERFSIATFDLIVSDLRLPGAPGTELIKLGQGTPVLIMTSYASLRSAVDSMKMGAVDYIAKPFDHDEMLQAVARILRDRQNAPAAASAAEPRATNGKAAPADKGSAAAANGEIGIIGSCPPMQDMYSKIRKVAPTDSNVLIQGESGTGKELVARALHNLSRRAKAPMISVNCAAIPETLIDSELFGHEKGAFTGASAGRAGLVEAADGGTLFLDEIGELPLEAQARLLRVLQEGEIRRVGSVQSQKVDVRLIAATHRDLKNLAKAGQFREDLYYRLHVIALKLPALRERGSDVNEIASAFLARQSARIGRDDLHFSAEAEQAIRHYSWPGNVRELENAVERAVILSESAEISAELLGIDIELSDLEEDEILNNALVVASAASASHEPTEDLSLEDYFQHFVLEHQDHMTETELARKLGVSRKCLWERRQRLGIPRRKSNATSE


What was measured:
[1] = biological target: T1, CbrB; assay: EMSA; EMSA at room temperature; crcZ/crcY (5 nM): 35 mM Tris-acetate pH 7.9, 70 mM KAc, 20 mM NH4Ac, 2 mM MgAc2, 1 mM CaCl2, 1 mM DTT, 5% glycerol; others (1.5 nM) and footprint: 50 mM Tris-HCl pH 7.4, 50 mM KCl, 10 mM MgCl2, 0.1 mM EDTA, 1 mM DTT; plus 100 ng/ul salmon sperm DNA, 250 ng/ul BSA; conditions: protein: recombinant, tags: N-terminal His tag (pET-14b derived pMPO1229), label: 32P-dATP Klenow fill-in
[2] = biological target: T1, CbrB; assay: EMSA; not significantly affected; EMSA at room temperature; crcZ/crcY (5 nM): 35 mM Tris-acetate pH 7.9, 70 mM KAc, 20 mM NH4Ac, 2 mM MgAc2, 1 mM CaCl2, 1 mM DTT, 5% glycerol; others (1.5 nM) and footprint: 50 mM Tris-HCl pH 7.4, 50 mM KCl, 10 mM MgCl2, 0.1 mM EDTA, 1 mM DTT; plus 100 ng/ul salmon sperm DNA, 250 ng/ul BSA; conditions: protein: recombinant; tags: N-terminal His tag (pET-14b derived pMPO1229); label: 32P-dATP Klenow fill-in; 5' overhang 2 nt at both ends before fill-in
[3] = 5' overhang 2 nt at both ends before fill-in

Binder | binding result [1, 3] | other results
PcrcZ wt 72 bp (dsDNA) DNA 1: TTCCCGTAAAAATCTGTTACCCAAGCTTTCCGCCGTAACAGTCCCCGAGGCGTACGGTAACGAAATTGCGACAT DNA 2: TTATGTCGCAATTTCGTTACCGTACGCCTCGGGGACTGTTACGGCGGAAAGCTTGGGTAACAGATTTTTACGGG | binds | –
PcrcZ R1 mutant (dsDNA) DNA 1: TTCCCGTAAAAATCTGTTACCCAAGCTTTCCGCCTGCTACGTCCCCGAGGCGTACGGTAACGAAATTGCGACAT DNA 2: TTATGTCGCAATTTCGTTACCGTACGCCTCGGGGACGTAGCAGGCGGAAAGCTTGGGTAACAGATTTTTACGG | – | binding result ([1]; 5' overhang 2 nt (one end 3 nt, reverse strand printed one G shorter) before fill-in): no binding
PcrcZ R2 mutant (dsDNA) DNA 1: TTCCCGTAAAAATCTGTTACCCAAGCTTTCCGCCGTAACAGTCCCCGAGGCGTACGTACCGTAAATTGCGACAT DNA 2: TTATGTCGCAATTTACGGTACGTACGCCTCGGGGACTGTTACGGCGGAAAGCTTGGGTAACAGATTTTTACGGG | no binding | –
PcrcZ F1 mutant (dsDNA) DNA 1: TTCCCGTAAAAATCGACTCTCCAAGCTTTCCGCCGTAACAGTCCCCGAGGCGTACGGTAACGAAATTGCGACAT DNA 2: TTATGTCGCAATTTCGTTACCGTACGCCTCGGGGACTGTTACGGCGGAAAGCTTGGAGAGTCGATTTTTACGGG | no binding | –
PcrcY wt 72 bp (dsDNA) DNA 1: TTGTGTGGGTGAAGTGTTACCTCCCGCACATTTCACAGCAAAAAATCGGGTAACAGGGAAACAAATCGGCAGAA DNA 2: TTTTCTGCCGATTTGTTTCCCTGTTACCCGATTTTTTGCTGTGAAATGTGCGGGAGGTAACACTTCACCCACAC | binds | –
PcrcY R' mutant (dsDNA) DNA 1: TTGTGTGGGTGAAGTGTTACCTCCCGCACATTTCACAGCAAAAAATCGGTACCGTGGGAAACAAATCGGCAGAA DNA 2: TTTTCTGCCGATTTGTTTCCCACGGTACCGATTTTTTGCTGTGAAATGTGCGGGAGGTAACACTTCACCCACAC | – | binding result [2]: binds
PcrcY F1 mutant (dsDNA) DNA 1: TTGTGTGGGTGAAGGACTCTCTCCCGCACATTTCACAGCAAAAAATCGGGTAACAGGGAAACAAATCGGCAGAA DNA 2: TTTTCTGCCGATTTGTTTCCCTGTTACCCGATTTTTTGCTGTGAAATGTGCGGGAGAGAGTCCTTCACCCACAC | no binding | –
PcrcY R2 mutant (dsDNA) DNA 1: TTGTGTGGGTGAAGTGTTACCTCCCGCACATTTCACAGCAAAAAATCGGGTAACAGGTCTCATAATCGGCAGAA DNA 2: TTTTCTGCCGATTATGAGACCTGTTACCCGATTTTTTGCTGTGAAATGTGCGGGAGGTAACACTTCACCCACAC | – | binding result [2]: binds
